Results from patent US20260250398A1 (ANTLERA THERAPEUTICS, published 2026).

T1: LRP6 (low-density lipoprotein receptor-related protein 6) (UniProt O75581 20-1370, limits assumed)
T1 sequence (looked up): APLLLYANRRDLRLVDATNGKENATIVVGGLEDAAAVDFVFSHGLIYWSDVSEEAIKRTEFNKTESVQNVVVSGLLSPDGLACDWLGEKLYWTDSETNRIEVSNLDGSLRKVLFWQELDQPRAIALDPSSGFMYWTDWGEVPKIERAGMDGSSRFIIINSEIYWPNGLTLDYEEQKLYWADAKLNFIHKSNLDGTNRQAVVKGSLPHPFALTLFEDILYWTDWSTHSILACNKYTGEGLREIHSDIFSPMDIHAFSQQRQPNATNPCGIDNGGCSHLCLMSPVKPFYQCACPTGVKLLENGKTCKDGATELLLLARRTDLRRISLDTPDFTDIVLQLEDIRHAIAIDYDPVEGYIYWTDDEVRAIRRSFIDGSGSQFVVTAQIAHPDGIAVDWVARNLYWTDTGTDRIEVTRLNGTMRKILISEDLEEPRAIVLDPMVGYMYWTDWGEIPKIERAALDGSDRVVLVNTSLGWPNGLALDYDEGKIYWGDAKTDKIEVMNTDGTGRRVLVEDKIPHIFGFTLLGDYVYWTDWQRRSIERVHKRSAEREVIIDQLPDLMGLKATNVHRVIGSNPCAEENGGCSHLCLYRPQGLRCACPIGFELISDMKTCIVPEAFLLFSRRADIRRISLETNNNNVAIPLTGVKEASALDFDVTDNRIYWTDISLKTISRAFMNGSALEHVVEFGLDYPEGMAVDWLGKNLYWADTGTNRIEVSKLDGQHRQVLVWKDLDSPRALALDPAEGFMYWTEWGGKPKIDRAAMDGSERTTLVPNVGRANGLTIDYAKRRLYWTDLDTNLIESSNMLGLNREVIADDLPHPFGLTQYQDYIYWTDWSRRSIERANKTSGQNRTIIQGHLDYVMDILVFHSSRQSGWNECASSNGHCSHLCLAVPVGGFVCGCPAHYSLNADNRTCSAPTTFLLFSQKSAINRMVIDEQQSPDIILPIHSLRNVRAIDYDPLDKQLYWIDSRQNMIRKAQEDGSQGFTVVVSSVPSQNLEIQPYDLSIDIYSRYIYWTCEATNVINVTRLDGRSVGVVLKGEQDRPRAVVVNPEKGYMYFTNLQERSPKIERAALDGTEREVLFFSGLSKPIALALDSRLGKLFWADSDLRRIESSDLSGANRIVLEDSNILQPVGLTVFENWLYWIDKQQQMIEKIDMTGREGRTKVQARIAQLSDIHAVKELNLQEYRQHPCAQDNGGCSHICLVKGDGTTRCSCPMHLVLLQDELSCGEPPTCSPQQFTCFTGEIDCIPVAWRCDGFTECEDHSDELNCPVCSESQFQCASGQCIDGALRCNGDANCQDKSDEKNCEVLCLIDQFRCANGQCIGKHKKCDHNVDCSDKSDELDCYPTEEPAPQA


Target: T1, LRP6 (low-density lipoprotein …)
Experiment: cell-based or functional assay

Row | TOPFLASH % Wnt Maxima [% Wnt Maxima] | Binder
1 | 63 | CM0011 (FZD Diabody-Fc-LRP Diabody; paratopes 5019; 2539, 2542) (bispecific antibody) chain 1: MNLLLILTFVAAAVAEFEVQLVESGGGLVQPGGSLRLSCAASGFNIGSSSIHWVRQAPGKGLEWVASIYSAFASTSYADSVKGRFTISADTSKNTAYLQMNSLRAEDTAVYYCARYHFPFGFALDYWGQGTLVTVSSGGGGSDIQMTQSPSSLSASVGDRVTITCRASQSVSSAVAWYQQKPGKAPKLLIYSASSLYSGVPSRFSGSRSGTDFTLTISSLQPEDFATYYCQQGVYLFTFGQGTKVEIKLEDKTHTKVEPKSSDKTHNCPPCPAPELLGGPSVFLFPPKPKDTLMISRTPEVTCVVVDVSHEDPEVKFNWYVDGVEVHNAKTKPREEQYNSTYRVVSVLTVLHQDWLNGKEYKCKVSNKALPAPIEKTISKAKGQPREPQVYTLPPIRELMTSNQVSLSCAVKGFYPSDIAVEWESNGQPENNYKTTPPVLDSDGSFFLVSKLTVDKSRWQQGNVFSCSVMHEALHNHYTQKSLSLSPGKSGSETPGTSESATPESGGGEVQLVESGGGLVQPGGSLRLSCAASGFNISSYYIHWVRQAPGKGLEWVASIYSSYGYTSYADSVKGRFTISADTSKNTAYLQMNSLRAEDTAVYYCARTVRGSKKPYFSGWAMDYWGQGTLVTVSSGGGGSDIQMTQSPSSLSASVGDRVTITCRASQSVSSAVAWYQQKPGKAPKLLIYSASSLYSGVPSRFSGSRSGTDFTLTISSLQPEDFATYYCQQYSWGPFTFGQGTKVEIK chain 2: MNLLLILTFVAAAVAEFEVQLVESGGGLVQPGGSLRLSCAASGFNIGSSSIHWVRQAPGKGLEWVASIYSAFASTSYADSVKGRFTISADTSKNTAYLQMNSLRAEDTAVYYCARYHFPFGFALDYWGQGTLVTVSSGGGGSDIQMTQSPSSLSASVGDRVTITCRASQSVSSAVAWYQQKPGKAPKLLIYSASSLYSGVPSRFSGSRSGTDFTLTISSLQPEDFATYYCQQGVYLFTFGQGTKVEIKLEDKTHTKVEPKTSDKTHTCPPCPAPELLGGPSVFLFPPKPKDTLMISRTPEVTCVVVDVSHEDPEVKFNWYVDGVEVHNAKTKPREEQYNSTYRVVSVLTVLHQDWLNGKEYKCKVSNKALPAPIEKTISKAKGQPREPMVFDLPPSREEMTKNQVSLWCMVKGFYPSDIAVEWESNGQPENNYKTTPPVLDSDGSFFLYSKLTVDKSRWQQGNVFSCSVMHEALHNHYTQKSLSLSPGKSGSETPGTSESATPESGGGEVQLVESGGGLVQPGGSLRLSCAASGFNISYSSIHWVRQAPGKGLEWVAYISSYYGYTYYADSVKGRFTISADTSKNTAYLQMNSLRAEDTAVYYCARAHYFPWAGAMDYWGQGTLVTVSSGGGGSDIQMTQSPSSLSASVGDRVTITCRASQSVSSAVAWYQQKPGKAPKLLIYSASSLYSGVPSRFSGSRSGTDFTLTISSLQPEDFATYYCQQYYWPITFGQGTKVEIK
2 | 52 | CM0126 (FZD Diabody-Fc-LRP Diabody; paratopes 5016; 2539, 2542) (bispecific antibody) chain 1: MNLLLILTFVAAAVAEFEVQLVESGGGLVQPGGSLRLSCAASGFNIHSSSIHWVRQAPGKGLEWVAATYSSFGSITYADSVKGRFTISADTSKNTAYLQMNSLRAEDTAVYYCARYHHPFGYALDYWGQGTLVTVSSGGGGSDIQMTQSPSSLSASVGDRVTITCRASQSVSSAVAWYQQKPGKAPKLLIYSASSLYSGVPSRFSGSRSGTDFTLTISSLQPEDFATYYCQQGVYLFTFGQGTKVEIKLEDKTHTKVEPKSSDKTHNCPPCPAPELLGGPSVFLFPPKPKDTLMISRTPEVTCVVVDVSHEDPEVKFNWYVDGVEVHNAKTKPREEQYNSTYRVVSVLTVLHQDWLNGKEYKCKVSNKALPAPIEKTISKAKGQPREPQVYTLPPIRELMTSNQVSLSCAVKGFYPSDIAVEWESNGQPENNYKTTPPVLDSDGSFFLVSKLTVDKSRWQQGNVFSCSVMHEALHNHYTQKSLSLSPGKSGSETPGTSESATPESGGGEVQLVESGGGLVQPGGSLRLSCAASGFNISSYYIHWVRQAPGKGLEWVASIYSSYGYTSYADSVKGRFTISADTSKNTAYLQMNSLRAEDTAVYYCARTVRGSKKPYFSGWAMDYWGQGTLVTVSSGGGGSDIQMTQSPSSLSASVGDRVTITCRASQSVSSAVAWYQQKPGKAPKLLIYSASSLYSGVPSRFSGSRSGTDFTLTISSLQPEDFATYYCQQYSWGPFTFGQGTKVEIK chain 2: MNLLLILTFVAAAVAEFEVQLVESGGGLVQPGGSLRLSCAASGFNIHSSSIHWVRQAPGKGLEWVAATYSSFGSITYADSVKGRFTISADTSKNTAYLQMNSLRAEDTAVYYCARYHHPFGYALDYWGQGTLVTVSSGGGGSDIQMTQSPSSLSASVGDRVTITCRASQSVSSAVAWYQQKPGKAPKLLIYSASSLYSGVPSRFSGSRSGTDFTLTISSLQPEDFATYYCQQGVYLFTFGQGTKVEIKLEDKTHTKVEPKTSDKTHTCPPCPAPELLGGPSVFLFPPKPKDTLMISRTPEVTCVVVDVSHEDPEVKFNWYVDGVEVHNAKTKPREEQYNSTYRVVSVLTVLHQDWLNGKEYKCKVSNKALPAPIEKTISKAKGQPREPMVFDLPPSREEMTKNQVSLWCMVKGFYPSDIAVEWESNGQPENNYKTTPPVLDSDGSFFLYSKLTVDKSRWQQGNVFSCSVMHEALHNHYTQKSLSLSPGKSGSETPGTSESATPESGGGEVQLVESGGGLVQPGGSLRLSCAASGFNISYSSIHWVRQAPGKGLEWVAYISSYYGYTYYADSVKGRFTISADTSKNTAYLQMNSLRAEDTAVYYCARAHYFPWAGAMDYWGQGTLVTVSSGGGGSDIQMTQSPSSLSASVGDRVTITCRASQSVSSAVAWYQQKPGKAPKLLIYSASSLYSGVPSRFSGSRSGTDFTLTISSLQPEDFATYYCQQYYWPITFGQGTKVEIK
3 | 57 | CT0001 (FZD IgG-LRP Diabody; paratopes 5016; 2539, 2542) (bispecific antibody) heavy 1: EVQLVESGGGLVQPGGSLRLSCAASGFNIHSSSIHWVRQAPGKGLEWVAATYSSFGSITYADSVKGRFTISADTSKNTAYLQMNSLRAEDTAVYYCARYHHPFGYALDYWGQGTLVTVSSASTKGPSVFPLAPSSKSTSGGTAALGCLVKDYFPEPVTVSWNSGALTSGVHTFPAVLQSSGLYSLSSVVTVPSSSLGTQTYICNVNHKPSNTKVDKKVEPKSCDKTHTCPPCPAPELLGGPSVFLFPPKPKDTLMISRTPEVTCVVVDVSHEDPEVKFNWYVDGVEVHNAKTKPREEQYNSTYRVVSVLTVLHQDWLNGKEYKCKVSNKALPAPIEKTISKAKGQPREPQVYTLPPIRELMTSNQVSLSCAVKGFYPSDIAVEWESNGQPENNYKTTPPVLDSDGSFFLVSKLTVDKSRWQQGNVFSCSVMHEALHNHYTQKSLSLSPGKSGSETPGTSESATPESGGGEVQLVESGGGLVQPGGSLRLSCAASGFNISSYYIHWVRQAPGKGLEWVASIYSSYGYTSYADSVKGRFTISADTSKNTAYLQMNSLRAEDTAVYYCARTVRGSKKPYFSGWAMDYWGQGTLVTVSSGGGGSDIQMTQSPSSLSASVGDRVTITCRASQSVSSAVAWYQQKPGKAPKLLIYSASSLYSGVPSRFSGSRSGTDFTLTISSLQPEDFATYYCQQYSWGPFTFGQGTKVEIK heavy 2: EVQLVESGGGLVQPGGSLRLSCAASGFNIHSSSIHWVRQAPGKGLEWVAATYSSFGSITYADSVKGRFTISADTSKNTAYLQMNSLRAEDTAVYYCARYHHPFGYALDYWGQGTLVTVSSASTKGPSVFPLAPSSKSTSGGTAALGCLVKDYFPEPVTVSWNSGALTSGVHTFPAVLQSSGLYSLSSVVTVPSSSLGTQTYICNVNHKPSNTKVDKKVEPKSCDKTHTCPPCPAPELLGGPSVFLFPPKPKDTLMISRTPEVTCVVVDVSHEDPEVKFNWYVDGVEVHNAKTKPREEQYNSTYRVVSVLTVLHQDWLNGKEYKCKVSNKALPAPIEKTISKAKGQPREPMVFDLPPSREEMTKNQVSLWCMVKGFYPSDIAVEWESNGQPENNYKTTPPVLDSDGSFFLYSKLTVDKSRWQQGNVFSCSVMHEALHNHYTQKSLSLSPGKSGSETPGTSESATPESGGGEVQLVESGGGLVQPGGSLRLSCAASGFNISYSSIHWVRQAPGKGLEWVAYISSYYGYTYYADSVKGRFTISADTSKNTAYLQMNSLRAEDTAVYYCARAHYFPWAGAMDYWGQGTLVTVSSGGGGSDIQMTQSPSSLSASVGDRVTITCRASQSVSSAVAWYQQKPGKAPKLLIYSASSLYSGVPSRFSGSRSGTDFTLTISSLQPEDFATYYCQQYYWPITFGQGTKVEIK light: DIQMTQSPSSLSASVGDRVTITCRASQSVSSAVAWYQQKPGKAPKLLIYSASSLYSGVPSRFSGSRSGTDFTLTISSLQPEDFATYYCQQGVYLFTFGQGTKVEIKRTVAAPSVFIFPPSDEQLKSGTASVVCLLNNFYPREAKVQWKVDNALQSGNSQESVTEQDSKDSTYSLSSTLTLSKADYEKHKVYACEVTHQGLSSPVTKSFNRGEC
